Data on 167 variants can be found in the Human Domainome abundance scans (Beltran et al. 2025).

± gives the uncertainty stated by the source.

B1: Ras GTPase-activating protein 1, residues 281 to 341; numbered along this chain, P20936 (parent)
chain: RRRVRAILPYTKVPDTDEISFLKGDMFIVHNELEDGWMWVTNLRTDEQGLIVEDLVEEVGR

The variants in this series derive from B1. Description: abundance fitness (aPCA) (normalised: wild type 0, dead -1); higher = more abundant; growth selection in yeast, the domain comes from the species named. The following applies: Homo sapiens.
In the case of D15W, the abundance fitness was -0.276 ± 0.059.
Next, D15Q: -0.207 ± 0.072; D15C: -0.126 ± 0.029.
On to D15R, for which the abundance fitness is -0.172 ± 0.03.
The same measure for D15V: -0.577 ± 0.03.
As to P14T, the abundance fitness was -0.076 ± 0.034.
For the variant P14Q, the abundance fitness is -0.055 ± 0.074.
Regarding P14Y, the abundance fitness was -0.295 ± 0.033.
The same measure for P14H: -0.146 ± 0.032.
Take P14I: the abundance fitness was -0.124 ± 0.029.
The same measure for P14A: -0.027 ± 0.03; for G36R: -0.188 ± 0.028; for G36K: -0.344 ± 0.097.
On to G36Q, for which the abundance fitness was -0.557 ± 0.09.
For G36P, the abundance fitness is -0.597 ± 0.055.
In the case of G36Y, the abundance fitness is -0.874 ± 0.048.
The same measure for I51P: -0.912 ± 0.087; for I51F: -0.826 ± 0.045; for I51V: 0.023 ± 0.026.
The same measure for I51E: -0.899 ± 0.12; for I51T: -0.784 ± 0.054.
Consider V29M, for which the abundance fitness is -0.644 ± 0.1.
The same measure for V29A: -0.694 ± 0.041; for V29F: -0.913 ± 0.055.
Next, V29W: -0.951 ± 0.13.
With V29P, the abundance fitness is -0.959 ± 0.079.
Next, V29G: -0.861 ± 0.039.
Next, V29E: -0.873 ± 0.11.
The same measure for E32D: -0.026 ± 0.028; for E32R: -0.053 ± 0.033; for E32W: -0.103 ± 0.049.
E32G: the abundance fitness is -0.299 ± 0.029.
Next, E32N: -0.07 ± 0.03; H30L: -0.085 ± 0.03; H30R: -0.255 ± 0.029.
Next, H30E: 0.008 ± 0.077; H30Q: -0.033 ± 0.056; H30S: -0.318 ± 0.026.
As to H30N, the abundance fitness is -0.135 ± 0.028.
The same measure for D17S: -0.049 ± 0.024; for D17C: -0.105 ± 0.03; for D17G: -0.094 ± 0.026.
The same measure for D17H: -0.061 ± 0.03.
As for D17P, the abundance fitness is -0.088 ± 0.037.
On to D17M, for which the abundance fitness was -0.059 ± 0.044.
Turning to M26R, the abundance fitness is -0.186 ± 0.032.
With M26Y, the abundance fitness was -0.028 ± 0.029.
Regarding M26Q, the abundance fitness is -0.056 ± 0.062.
Take M26S: the abundance fitness was -0.125 ± 0.028.
Take M26I: the abundance fitness is -0.039 ± 0.031.
In the case of M26P, the abundance fitness is -0.325 ± 0.047.
For the variant M26D, the abundance fitness came to 0.012 ± 0.03.
The same measure for M26K: -0.333 ± 0.083; for D35I: -0.487 ± 0.037.
The same measure for D35R: -0.035 ± 0.03; for D35F: -0.182 ± 0.03; for D35K: -0.036 ± 0.062.
On to L8H, for which the abundance fitness was -0.037 ± 0.032.
The same measure for L8E: -0.067 ± 0.062.
With L8F, the abundance fitness is -0.075 ± 0.027.
Next, L8R: -0.059 ± 0.031; L8G: -0.012 ± 0.026.
On to L8N, for which the abundance fitness is -0.102 ± 0.028.
Next, L8Y: -0.084 ± 0.026; L8C: -0.052 ± 0.026; T45E: -0.997 ± 0.12.
With T45H, the abundance fitness was -0.769 ± 0.046.
The same measure for T45C: -0.771 ± 0.038; for T45G: -0.851 ± 0.043.
On to T45V, for which the abundance fitness was -0.807 ± 0.043.
Turning to T45P, the abundance fitness is -0.988 ± 0.084.
On to T45Y, for which the abundance fitness was -0.841 ± 0.045.
Regarding T45W, the abundance fitness was -0.876 ± 0.1.
Consider T45Q, for which the abundance fitness was -0.962 ± 0.25.
Next, E57T: -0.117 ± 0.042.
The same measure for E57A: -0.232 ± 0.048; for E57C: -0.168 ± 0.041.
The same measure for E57R: -0.197 ± 0.043; for E57M: -0.346 ± 0.081; for E57H: -0.224 ± 0.039.
On to R3F, for which the abundance fitness amounted to 0.004 ± 0.032.
Next, R3A: -0.292 ± 0.035.
Next, R3C: -0.212 ± 0.029; I7Q: -0.473 ± 0.11; I7H: -0.305 ± 0.036.
Next, I7C: -0.231 ± 0.029; I7A: -0.63 ± 0.054; I7R: -0.055 ± 0.034.
For I7M, the abundance fitness was -0.167 ± 0.065.
Take I7K: the abundance fitness is 0.037 ± 0.072.
For the variant I7D, the abundance fitness is -1.01 ± 0.08.
The same measure for P9D: 0.049 ± 0.033; for P9H: -0.157 ± 0.036; for P9S: -0.044 ± 0.026.
Next, L43K: -0.206 ± 0.065.
The same measure for L43P: -0.784 ± 0.079.
For the variant L43R, the abundance fitness is -0.437 ± 0.034.
The same measure for L43T: -0.038 ± 0.036; for L43W: -0.748 ± 0.098.
For the variant L43I, the abundance fitness is -0.012 ± 0.029.
For R44C, the abundance fitness was -0.47 ± 0.036.
As for R44S, the abundance fitness was -0.207 ± 0.026.
Next, R44Y: -0.523 ± 0.035; R44F: -0.637 ± 0.033.
As to S20T, the abundance fitness is -0.171 ± 0.035.
For the variant S20C, the abundance fitness is -0.318 ± 0.029.
As to S20M, the abundance fitness is -1.09 ± 0.2.
Next, S20Y: -0.881 ± 0.063.
The same measure for S20G: -0.386 ± 0.028; for S20K: -0.853 ± 0.12; for T41G: -0.941 ± 0.046.
For T41H, the abundance fitness is -0.078 ± 0.034.
On to T41M, for which the abundance fitness is -0.362 ± 0.064.
The same measure for T41R: -0.102 ± 0.03.
As for E53L, the abundance fitness was -0.236 ± 0.03.
The same measure for E53I: -0.052 ± 0.03.
Next, E53C: -0.079 ± 0.026.
The same measure for E53T: 0.041 ± 0.032; for E53K: 0.01 ± 0.054.
Consider E53S, for which the abundance fitness came to 0.021 ± 0.025.
Regarding E53W, the abundance fitness is -0.203 ± 0.055.
Turning to V13L, the abundance fitness is -0.053 ± 0.029.
Take V13Y: the abundance fitness is -0.137 ± 0.028.
Regarding V13G, the abundance fitness was -0.04 ± 0.025.
As to V13H, the abundance fitness came to 0.012 ± 0.03.
With V13M, the abundance fitness is -0.013 ± 0.073.
Next, M38N: -0.623 ± 0.042; M38S: -0.451 ± 0.029.
Next, M38V: -0.305 ± 0.028.
Turning to M38C, the abundance fitness is -0.228 ± 0.028.
The same measure for M38E: -1.24 ± 0.24; for M38H: -0.865 ± 0.061; for M38F: -0.18 ± 0.031.
As for G49R, the abundance fitness was -1.04 ± 0.079.
Take G49H: the abundance fitness was -0.825 ± 0.053.
The same measure for G49Q: -1.01 ± 0.12; for G49F: -0.754 ± 0.041; for D46Y: -0.098 ± 0.025.
In the case of D46L, the abundance fitness is -0.08 ± 0.026.
D46V: the abundance fitness was -0.044 ± 0.024.
As for D46H, the abundance fitness came out at 0.009 ± 0.028.
As for D46F, the abundance fitness is -0.065 ± 0.024.
In the case of G24C, the abundance fitness is -0.733 ± 0.036.
In the case of G24I, the abundance fitness is -0.933 ± 0.061.
As to G24F, the abundance fitness was -0.584 ± 0.035.
With G24Y, the abundance fitness is -0.297 ± 0.033.
The same measure for G24V: -0.751 ± 0.036; for R5E: -0.138 ± 0.056.
The same measure for R5N: -0.754 ± 0.044; for R5C: -0.072 ± 0.03.
The same measure for R5I: -0.055 ± 0.03; for R5D: -0.86 ± 0.067; for R5T: -0.21 ± 0.033.
On to R5S, for which the abundance fitness is -0.272 ± 0.027.
As to R5Q, the abundance fitness is -0.01 ± 0.057.
As for R5F, the abundance fitness was -0.398 ± 0.031.
Consider K12A, for which the abundance fitness is -0.029 ± 0.032.
Next, K12C: -0.101 ± 0.029; K12E: -0.218 ± 0.11.
As for K12H, the abundance fitness is -0.184 ± 0.033.
Turning to K12L, the abundance fitness was -0.779 ± 0.041.
The same measure for K12V: -0.788 ± 0.047; for R2S: -0.164 ± 0.024; for R2K: 0.027 ± 0.08.
As to R2I, the abundance fitness is -0.159 ± 0.027.
Consider R2L, for which the abundance fitness was -0.187 ± 0.031.
Next, R2Y: -0.103 ± 0.034.
